Reference: US20230399362A1 (B A I LABORATORIES, published 2023)
Square brackets hold non-standard residues; d marks the D form.

B1: Compound 10 (peptide)
peptide: cyclo(RDYC[dP][dW][dP])
SMILES: N=C(N)NCCC[C@@H]1NC(=O)[C@H]2CCCN2C(=O)[C@@H](Cc2c[nH]c3ccccc23)NC(=O)[C@H]2CCCN2C(=O)[C@H](CS)NC(=O)[C@H](Cc2ccc(O)cc2)NC(=O)[C@H](CC(=O)O)NC1=O
B2: Compound 7 (peptide)
peptide: cyclo(TR[dF]P[dL][dP])
SMILES: CC(C)C[C@H]1NC(=O)[C@@H]2CCCN2C(=O)[C@@H](Cc2ccccc2)NC(=O)[C@H](CCCNC(=N)N)NC(=O)[C@H]([C@@H](C)O)NC(=O)[C@H]2CCCN2C1=O
B3: Compound 2 (peptide)
peptide: cyclo(RT[dV]E[dF][dP])
SMILES: CC(C)[C@H]1NC(=O)[C@H]([C@@H](C)O)NC(=O)[C@H](CCCNC(=N)N)NC(=O)[C@H]2CCCN2C(=O)[C@@H](Cc2ccccc2)NC(=O)[C@H](CCC(=O)O)NC1=O
B4: Compound 9 (peptide)
peptide: cyclo([dR]L[dW]W[dT]EP)
SMILES: CC(C)C[C@@H]1NC(=O)[C@@H](CCCNC(=N)N)NC(=O)[C@@H]2CCCN2C(=O)[C@H](CCC(=O)O)NC(=O)[C@@H]([C@H](C)O)NC(=O)[C@H](Cc2c[nH]c3ccccc23)NC(=O)[C@@H](Cc2c[nH]c3ccccc23)NC1=O
B5: Compound 4 (peptide)
peptide: cyclo(RE[dV]W[dP][dP])
SMILES: CC(C)[C@H]1NC(=O)[C@H](CCC(=O)O)NC(=O)[C@H](CCCNC(=N)N)NC(=O)[C@H]2CCCN2C(=O)[C@H]2CCCN2C(=O)[C@H](Cc2c[nH]c3ccccc23)NC1=O
B6: Compound 11 (peptide)
peptide: cyclo(VP[dL][dW][dV]LRP)
SMILES: CC(C)C[C@@H]1NC(=O)[C@@H](C(C)C)NC(=O)[C@@H](Cc2c[nH]c3ccccc23)NC(=O)[C@@H](CC(C)C)NC(=O)[C@@H]2CCCN2C(=O)[C@H](C(C)C)NC(=O)[C@@H]2CCCN2C(=O)[C@H](CCCNC(=N)N)NC1=O
B7: Compound 6 (peptide)
peptide: cyclo(YRE[dT][dV][dP])
SMILES: CC(C)[C@H]1NC(=O)[C@@H]([C@H](C)O)NC(=O)[C@H](CCC(=O)O)NC(=O)[C@H](CCCNC(=N)N)NC(=O)[C@H](Cc2ccc(O)cc2)NC(=O)[C@H]2CCCN2C1=O
B8: Compound 8 (peptide)
peptide: cyclo([dL]REPWMP)
SMILES: CSCC[C@@H]1NC(=O)[C@H](Cc2c[nH]c3ccccc23)NC(=O)[C@@H]2CCCN2C(=O)[C@H](CCC(=O)O)NC(=O)[C@H](CCCNC(=N)N)NC(=O)[C@@H](CC(C)C)NC(=O)[C@@H]2CCCN2C1=O
B9: Compound 5 (peptide)
peptide: cyclo(WVRE[dP][dP])
SMILES: CC(C)[C@@H]1NC(=O)[C@H](Cc2c[nH]c3ccccc23)NC(=O)[C@H]2CCCN2C(=O)[C@H]2CCCN2C(=O)[C@H](CCC(=O)O)NC(=O)[C@H](CCCNC(=N)N)NC1=O
B10: Compound 1 (peptide)
peptide: cyclo([dR][dF][dV]YEP)
SMILES: CC(C)[C@H]1NC(=O)[C@@H](Cc2ccccc2)NC(=O)[C@@H](CCCNC(=N)N)NC(=O)[C@@H]2CCCN2C(=O)[C@H](CCC(=O)O)NC(=O)[C@H](Cc2ccc(O)cc2)NC1=O
B11: Compound 3 (peptide)
peptide: cyclo(E[dT][dV]W[dP][dP])
SMILES: CC(C)[C@H]1NC(=O)[C@@H]([C@H](C)O)NC(=O)[C@H](CCC(=O)O)NC(=O)[C@H]2CCCN2C(=O)[C@H]2CCCN2C(=O)[C@H](Cc2c[nH]c3ccccc23)NC1=O
B12: Tralokinumab (antibody, V domains shown)
VH: QVQLVQSGAEVKKPGASVKVSCKASGYTFTNYGLSWVRQAPGQGLEWMGWISANNGDTNYGQEFQGRVTMTTDTSTSTAYMELRSLRSDDTAVYYCARDSSSSWARWFFDLWGRGTLVTVSS
VL: SYVLTQPPSVSVAPGKTARITCGGNIIGSKLVHWYQQKPGQAPVLVIYDDGDRPSGIPERFSGSNSGNTATLTISRVEAGDEADYYCQVWDTGSDPVVFGGGTKLTVL

Target: T1, Human IL-13 with an Fc-tag (human, UniProt P35225 35-146, limits assumed)
T1 construct: Immobilized on CM5 chip (about 5000 RU); also called Interleukin-13; not shown: Fc-tag
T1 sequence (P35225 35-146 limits assumed): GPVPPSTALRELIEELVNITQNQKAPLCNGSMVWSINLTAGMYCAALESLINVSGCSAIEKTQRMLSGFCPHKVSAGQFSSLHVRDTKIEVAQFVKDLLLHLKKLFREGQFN
Assay: SPR, BIAcore 8K plus, human IL-13-Fc immobilized on CM5, peptide as analyte, 25 C

Which Kd does the source give for B1 here?
Its Kd is 368 µM.

With B2 as the binder, how does the Kd read?
Its Kd is 85.1 µM.

With B3 as the binder, how does the Kd read?
Its Kd is 17.4 µM.

B4 was tested. Which Kd did it give?
Its Kd is 337 µM.

B5 was tested. Which Kd did it give?
Its Kd is 26.2 µM.

Which Kd does the source give for B6 here?
The Kd was 622 µM.

With B7 as the binder, how does the Kd read?
Its Kd is 55.4 µM.

How did the Kd turn out when B8 was run?
Its Kd is 99.5 µM.

B9 was tested. Which Kd did it give?
Its Kd is 47.1 µM.

For B10, which Kd is on record?
Its Kd is 16 µM.

How did the Kd turn out when B11 was run?
The Kd was 22.8 µM.

Target: T1, Human IL-13 with an Fc-tag
Assay: SPR, BIAcore 8K plus, human IL-13-Fc immobilized on CM5, positive control

Which Kd does the source give for B12 here?
The Kd was 0.000309 µM.
